Patent US20240366776A1 (Hoffmann-La Roche, published 2024)

T1: biotinylated IL-2 receptor beta gamma heterodimer Fc (IL-2RBG; Acro ILG-H5254) (UniProt P14784 27-239; P31785 23-262, biotinylated)
T1 construct: bought heterodimer
T1 sequence (looked up) 1: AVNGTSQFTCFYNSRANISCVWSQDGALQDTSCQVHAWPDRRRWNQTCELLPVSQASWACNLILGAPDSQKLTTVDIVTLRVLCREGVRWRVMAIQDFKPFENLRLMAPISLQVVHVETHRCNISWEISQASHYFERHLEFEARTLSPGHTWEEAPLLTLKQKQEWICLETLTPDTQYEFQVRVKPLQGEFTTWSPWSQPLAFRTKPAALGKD
T1 sequence (looked up) 2: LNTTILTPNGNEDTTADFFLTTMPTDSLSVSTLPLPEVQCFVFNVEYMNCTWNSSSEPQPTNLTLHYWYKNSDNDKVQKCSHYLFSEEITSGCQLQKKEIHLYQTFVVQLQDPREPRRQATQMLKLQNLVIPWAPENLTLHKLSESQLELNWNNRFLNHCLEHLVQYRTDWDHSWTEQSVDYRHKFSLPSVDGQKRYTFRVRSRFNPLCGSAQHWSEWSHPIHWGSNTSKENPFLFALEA


What was measured:
[1] = target: T2, human IL-2 (human, UniProt P60568 21-153, biotin-labeled in the IL2RB blocking assay); assay: HTRF IL-2:IL2RB
T2 construct: also called biotin-labeled IL-2 (Acro Biosystems IL2-H82E4)

[2] = target: PD-1 (human, UniProt Q15116 25-167, limits assumed); assay: HTRF
[3] = target: T2, human IL-2; assay: HTRF
[4] = target: T1, biotinylated IL-2 receptor beta gamma …; assay: ELISA, captured complex, biotin-IL-2RBG titrated

T2 sequence (P60568 21-153 limits assumed): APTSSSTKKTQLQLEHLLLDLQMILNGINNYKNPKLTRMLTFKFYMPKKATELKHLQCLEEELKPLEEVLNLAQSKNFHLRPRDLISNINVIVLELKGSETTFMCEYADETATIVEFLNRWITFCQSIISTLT
Sequence of PD-1 (Q15116 25-167 limits assumed): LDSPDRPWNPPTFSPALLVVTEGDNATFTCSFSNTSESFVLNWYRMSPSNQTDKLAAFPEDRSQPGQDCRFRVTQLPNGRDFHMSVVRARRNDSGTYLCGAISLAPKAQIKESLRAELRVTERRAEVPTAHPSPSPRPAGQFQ

Row | IL2RB Blocking [1] | PD1 Binding [2] | IL2 Binding [3] | binding result [4] | Binder
1 | 910 | 1240 | 2040 | – | PD1-IL2-R07-A09 (SEQ ID NO: 34) (scFv, V5-tagged in the assay) scFv: QVQLVQSGAEVKKPGASVKVSCKASGYTFTSYYMHWVRQAPGQGLEWMGIINPSDGSTTYAQSFQGRVTMTRDTSTSTVYMELSSLRSEDTAVYYCASGWDVWGQGTLVTVSSASGGGGSGGGGSGGGGSHASDIVMTQSPDSLAVSLGERATINCKSSQSVFSSANNKNYLAWYQQKPGQPPKLLIYWASTRESGVPDRFSGSGSGTDFTLTISSLQAEDVAVYYCQQYFGTPVTFGGGTKVEIK
2 | 1550 | 1550 | 4 | – | PD1-R04-C10 (scFv, tied by the comment 'PD1_R04_C10- Internal anti-PD1 mAb' of PEP001315) scFv: MSTSTEQKLISEEDLQVQLVQSGAEVKKPGASVKVSCKASGYTFTTYYMHWVRQAPGQGLEWMGIINPSGGGTLYAQKFQGRVTMTRDTSTSTVYMELSSLRSEDTAVYYCAAGLFIWGQGTTVTVSSASGGGGSGGGGSGGGGSHASDIVMTQSPDSLAVSLGERATINCKASQSLLHSSSNKNYLAWYQQKPGQPPKLLIYWASTRESGVPDRFSGSGSGTDFTLTISSLQAEDVAVYYCQQYYSTPITFGPGTKVDIKGSGLNDIFEAQKIEWHEGKPIPNPLLGLDST
3 | 1610 | 730 | 973 | – | PD1-IL2-R07-A04 (scFv) QVQLVQSGAEVKKPGASVKVSCKASGYTFTDYYMHWVRQAPGQGLEWMGIINPRAGYTSYALKFQGRVTMTRDTSTSTVYMELSSLRSEDTAVYYCTSGMDVWGQGTLVTVSSASGGGGSGGGGSGGGGSHASDIQMTQSPSSLSASVGDRVTITCRASQSISTWLAWYQQKPGKAPKLLIYAASSLQSGVPSRFSGSGSGTDFTLTISSLQPEDFATYYCQQSYSFPVTFGQGTKVEIK
4 | – | – | – | binds | AF004695 (other, also called AF4695) heavy 1: QVQLVESGGGVVQPGRSLRLDCKASGITFSNSGMHWVRQAPGKGLEWVAVIWYDGSKRYYADSVKGRFTISRDNSKNTLFLQMNSLRAEDTAVYYCATNDDYWGQGTLVTVSSAKTTAPSVYPLAPVCGDTTGSSVTLGCLVKGYFPEPVTLTWNSGSLSSGVHTFPAVLQSDLYTLSSSVTVTSSTWPSQSITCNVAHPASSTKVDKKIEPRGPTIKPCPPCKCPAPNAAGGPSVFIFPPKIKDVLMISLSPIVTCVVVDVSEDDPDVQISWFVNNVEVHTAQTQTHREDYNSTLRVVSALPIQHQDWMSGKEFKCKVNNKDLGAPIERTISKPKGSVRAPQVYVLPPPEEEMTKKQVTLTCMVTDFMPEDIYVEWTNNGKTELNYKNTEPVLDSDGSYFMYSDLRVEKKNWVERNSYSCSVVHEGLHNHHTTESFSRTPGGGGGSGGGGSGGGGSAPTSSSTKKTQLQLEHLLLDLQMILNGINNYKNPKLTDMLTFEFYMPKKATELKHLQCLERELKPLEEVLNLAQSKNFHLRPRDLISNINVIVLELKGSETTFMCEYADETATIVEFLNRWITFCQSIISTLT heavy 2: QVQLVESGGGVVQPGRSLRLDCKASGITFSNSGMHWVRQAPGKGLEWVAVIWYDGSKRYYADSVKGRFTISRDNSKNTLFLQMNSLRAEDTAVYYCATNDDYWGQGTLVTVSSAKTTAPSVYPLAPVCGDTTGSSVTLGCLVKGYFPEPVTLTWNSGSLSSGVHTFPAVLQSDLYTLSSSVTVTSSTWPSQSITCNVAHPASSTKVDKKIEPRGPTIKPCPPCKCPAPNAAGGPSVFIFPPKIKDVLMISLSPIVTCVVVDVSEDDPDVQISWFVNNVEVHTAQTQTHREDYNSTLRVVSALPIQHQDWMSGKEFKCKVNNKDLGAPIERTISKPKGSVRAPQVYVLPPPEKEMTKKQVSLTCLVKDFMPEDIYVEWTNNGKTELNYKNTEPVLKSDGSYFMYSKLTVEKKNWVERNSYSCSVVHEGLHNHHTTKSFSRTPGGGGGSGGGGSGGGGSGGGGSQVQLVQSGAEVKKPGASVKVSCKASGDTFTRYYVHWVRQAPGQGLEWMGIINPSGGYASYAQKFQGRVTMTRDTSTSTVYMELSSLRSEDTAVYYCAAGLFIWGQGTLVTVSSASGGGGSGGGGSGGGGSHASDIQMTQSPSSLSASVGDRVTITCRASQSIGRWLAWYQQKPGKAPKLLIYSASNLETGVPSRFSGSGSGTDFTLTISSLQPEDFATYYCQQYNRFPVTFGPGTKVDIK light: EIVLTQSPATLSLSPGERATLSCRASQSVSSYLAWYQQKPGQAPRLLIYDASNRATGIPARFSGSGSGTDFTLTISSLEPEDFAVYYCQQSSNWPRTFGQGTKVEIKRADAAPTVSIFPPSSEQLTSGGASVVCFLNNFYPKDINVKWKIDGSERQNGVLNSWTDQDSKDSTYSMSSTLTLTKDEYERHNSYTCEATHKTSTSPIVKSFNRNEC
5 | – | – | – | binds | AF004696 (other, also called AF4696) heavy 1: QVQLVESGGGVVQPGRSLRLDCKASGITFSNSGMHWVRQAPGKGLEWVAVIWYDGSKRYYADSVKGRFTISRDNSKNTLFLQMNSLRAEDTAVYYCATNDDYWGQGTLVTVSSAKTTAPSVYPLAPVCGDTTGSSVTLGCLVKGYFPEPVTLTWNSGSLSSGVHTFPAVLQSDLYTLSSSVTVTSSTWPSQSITCNVAHPASSTKVDKKIEPRGPTIKPCPPCKCPAPNAAGGPSVFIFPPKIKDVLMISLSPIVTCVVVDVSEDDPDVQISWFVNNVEVHTAQTQTHREDYNSTLRVVSALPIQHQDWMSGKEFKCKVNNKDLGAPIERTISKPKGSVRAPQVYVLPPPEEEMTKKQVTLTCMVTDFMPEDIYVEWTNNGKTELNYKNTEPVLDSDGSYFMYSDLRVEKKNWVERNSYSCSVVHEGLHNHHTTESFSRTPGGGGGSGGGGSGGGGSAPTSSSTKKTQLQLEHLLLDLQMILNGINNYKNPKLTDMLTFEFYMPKKATELKHLQCLERELKPLEEVLNLAQSKNFHLRPRDLISNINVIVLELKGSETTFMCEYADETATIVEFLNRWITFCQSIISTLT heavy 2: QVQLVESGGGVVQPGRSLRLDCKASGITFSNSGMHWVRQAPGKGLEWVAVIWYDGSKRYYADSVKGRFTISRDNSKNTLFLQMNSLRAEDTAVYYCATNDDYWGQGTLVTVSSAKTTAPSVYPLAPVCGDTTGSSVTLGCLVKGYFPEPVTLTWNSGSLSSGVHTFPAVLQSDLYTLSSSVTVTSSTWPSQSITCNVAHPASSTKVDKKIEPRGPTIKPCPPCKCPAPNAAGGPSVFIFPPKIKDVLMISLSPIVTCVVVDVSEDDPDVQISWFVNNVEVHTAQTQTHREDYNSTLRVVSALPIQHQDWMSGKEFKCKVNNKDLGAPIERTISKPKGSVRAPQVYVLPPPEKEMTKKQVSLTCLVKDFMPEDIYVEWTNNGKTELNYKNTEPVLKSDGSYFMYSKLTVEKKNWVERNSYSCSVVHEGLHNHHTTKSFSRTPGGGGGSGGGGSGGGGSGGGGSQVQLVQSGAEVKKPGASVKVSCKASGYTFTRYYMHWVRQAPGQGLEWMGIINPRAGYTSYALKFQGRVTMTRDTSTSTVYMELSSLRSEDTAVYYCTSGWDVWGQGTLVTVSSASGGGGSGGGGSGGGGSHASDIQMTQSPSSLSASVGDRVTITCRASQSISTWLAWYQQKPGKAPKLLIYAASSLDSGVPSRFSGSGSGTDFTLTISSLQPEDFATYYCQQSYSFPVTFGQGTKVEIK light: EIVLTQSPATLSLSPGERATLSCRASQSVSSYLAWYQQKPGQAPRLLIYDASNRATGIPARFSGSGSGTDFTLTISSLEPEDFAVYYCQQSSNWPRTFGQGTKVEIKRADAAPTVSIFPPSSEQLTSGGASVVCFLNNFYPKDINVKWKIDGSERQNGVLNSWTDQDSKDSTYSMSSTLTLTKDEYERHNSYTCEATHKTSTSPIVKSFNRNEC

Second part, the binder before the results:

Row | Binder | IL2RB Blocking [1] | PD1 Binding [2] | IL2 Binding [3] | binding result [4]
6 | PD1-IL2-R02-B07 (scFv) QVQLVQSGAEVKKPGASVKVSCKASGDTFTRHYVHWVRQAPGQGLEWMGIINPSGGYASYAQKFQGRVTMTRDTSTSTVYMELSSLRSEDTAVYYCAAGLFIWGQGTLVTVSSASGGGGSGGGGSGGGGSHASDIQMTQSPSSLSASVGDRVTITCRASQSIGRWLAWYQQKPGKAPKLLIYSASNLETGVPSRFSGSGSGTDFTLTISSLQPEDFATYYCQQANSFPVTFGPGTKVDIK | 1810 | 1680 | 628 | –
7 | PD1-IL2-R02-A11 (scFv, V domains shown, cf) VH: QVQLVQSGAEVKKPGASVKVSCKASGHTFTRYYMHWVRQAPGQGLEWMGIINPSGGYATYAQKFQGRVTMTRDTSTSTVYMELSSLRSEDTAVYYCASGWDVWGQGTLVTVSS VL: DIQMTQSPSSLSASVGDRVTITCRASQSINSWLAWYQQKPGKAPKLLIYATSTLESGVPSRFSGSGSGTDFTLTISSLQPEDFATYYCQQSYSFPPTFGQGTKVEIK | 1780 | 1620 | 1560 | –
8 | PD1-IL2-R02-C02 (SEQ ID NO: 31) (scFv, V5-tagged in the assay) scFv: QVQLVQSGAEVKKPGVSVKVSCKASGYTFPRSYIHWVRQAPGQGLEWMGWINPHSGDTYYAQNFQGRVTMTRDTSTSTVYMELSSLRSEDTAVYYCARDTGLGYYYGSGDFDYWGQGTLVTVSSASGGGGSGGGGSGGGGSHASDIQMTQSPSSLSASVGDRVTITCRASQSISRYLNWYQQKPGKAPKLLIYTASSLQSGVPSRFSGSGSGTDFTLTISSLQPEDFATYYCQQANRFPLTFGPGTKVDIK | 1070 | 1300 | 298 | –
9 | PD1-IL2-R02-C03 (SEQ ID NO: 32) (scFv, V5-tagged in the assay) scFv: QVQLVQSGAEVKKPGASVKVSCKASGYTFPRYHIHWVRQAPGQGLEWMGMINPSGGTTTYAQKFQGRVTMTRDTSTSTVYMELSSLRSEDTAVYYCARDTGLGYYYGSGDFDYWGQGTLVTVSSASGGGGSGGGGSGGGGSHASDIQMTQSPSSLSASVGDRVTITCRASQSISSWLAWYQQKPGKAPKLLIYAASSLQSGVPSRFSGSGSGTDFTLTISSLQPEDFATYYCQQSHSFPLTFGGGTKVEIK | 1210 | 1380 | 293 | –
10 | PD1-IL2-R02-B05 (scFv) QVQLVQSGAEVKKPGASVKVSCKASGYTFTNYYIHWVRQAPGQGLEWMGIINPRAGYTSYALKFQGRVTMTRDTSTSTVYMELSSLRSEDTAVYYCAGGWLDWGQGTLVTVSSASGGGGSGGGGSGGGGSHASDIQMTQSPSSLSASVGDRVTITCRASQSISSWLAWYQQKPGKAPKLLIYAASSLQSGVPSRFSGSGSGTDFTLTISSLQPEDFATYYCQQSFTMPITFGQGTRLEIK | 1610 | 1660 | 2490 | –
